From publication PMC10499838 (Nature Communications, 2023) come the findings set out here.

This experiment has as its target RVFV Gn, WT sequence, transiently expressed in Expi293F cells (Rift Valley fever virus, GenBank …). The experiment is described as follows: flow cytometry on cells. Conditions: one partner purified.

B1: RVFV-268 IgG1 (antibody, V domains shown)
VH: QVHLVESGGGVVQPGKSLRLSCAASGFIFNHFGIHWVRQSPGKGLEWVAVIWYDGSKKYFADSVKGRFSISRDNSQNTVYLQMNSLRTEDTAVYYCARERWSGHSYLDYWGHGALVTVSS
VL: SNVLTQPPSVSVAPGQTARISCGGNNLESKYVHWYQQKPGQAPVLVVYEDSGRPSGIPERFSGSNSGGTATLTISRVEAGDEADYYCQEWDTSSDYPVFGGGTKVTVL
notes: copies: 2 + 2
Turning to B1, the binding result is “binds”.
